Target: T1, CD46 on human coloncarcinoma LS174T cells (human, UniProt P15529 35-392)
T1 construct: whole, on cells
T1 sequence (looked up): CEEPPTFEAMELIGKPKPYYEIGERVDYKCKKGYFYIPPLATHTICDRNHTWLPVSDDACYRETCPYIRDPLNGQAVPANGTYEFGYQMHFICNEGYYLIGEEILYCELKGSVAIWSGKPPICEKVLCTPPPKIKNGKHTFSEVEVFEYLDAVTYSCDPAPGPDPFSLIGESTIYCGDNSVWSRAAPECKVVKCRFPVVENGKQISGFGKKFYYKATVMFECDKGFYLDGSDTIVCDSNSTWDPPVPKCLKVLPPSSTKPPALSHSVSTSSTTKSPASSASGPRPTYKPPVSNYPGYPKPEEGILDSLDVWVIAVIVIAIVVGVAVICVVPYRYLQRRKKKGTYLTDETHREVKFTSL
Assay: FACS on LS174T cells preincubated with normal human serum; biotinylated antibody, streptavidin-PE; MFI
Procedure: Binding (MFI, ordinate) was determined by FACS after incubation with streptavidin-conjugated phycoerythrin.

- EC50 (read off the curve): ~3 µg/mL
B1: K53 IgG (antibody, V domains shown)
VH: QVQLVQSGAEVKKPGASVKVSCKASGYTFTSYGISWVRQAPGQGLEWMGWISAYNGNTNYAQKLQGRVTMTTDTSTSTAYMELRSLRSDDTAVYYCARGMMRGVFDYWGQGTLVTVST
VL: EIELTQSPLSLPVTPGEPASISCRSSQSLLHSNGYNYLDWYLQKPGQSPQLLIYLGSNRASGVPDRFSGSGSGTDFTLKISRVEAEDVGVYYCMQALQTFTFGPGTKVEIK
notes: also called clone K53; anti-CD46 clone K53

Source: patent US20090263864A1 (CRUCELL HOLLAND B V, published 2009)
